In data set [1] the target is T1, DNA polymerase iota catalytic core (UniProt Q9UNA4 26-443).
T1 sequence: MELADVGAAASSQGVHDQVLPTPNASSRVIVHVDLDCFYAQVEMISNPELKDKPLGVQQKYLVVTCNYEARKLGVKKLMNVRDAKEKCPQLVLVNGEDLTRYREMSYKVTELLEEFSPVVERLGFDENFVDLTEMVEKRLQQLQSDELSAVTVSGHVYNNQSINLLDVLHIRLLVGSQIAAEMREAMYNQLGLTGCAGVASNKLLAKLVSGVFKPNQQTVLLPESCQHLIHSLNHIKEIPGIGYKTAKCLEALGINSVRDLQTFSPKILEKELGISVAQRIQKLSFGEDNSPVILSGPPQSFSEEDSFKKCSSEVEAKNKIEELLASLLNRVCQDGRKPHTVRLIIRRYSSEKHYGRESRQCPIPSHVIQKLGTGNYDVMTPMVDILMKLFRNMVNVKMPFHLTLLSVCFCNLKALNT
As to the kind of experiment: X-ray crystallography.

Data set [2] addresses T1, DNA polymerase iota catalytic core. As to the kind of experiment: X-ray crystallography. This is another data set of the same source.
Data set [3] has the same target. Description: time-lapse X-ray crystallography.
Data set [4] shares this target. As to the kind of experiment: X-ray crystallography. The source holds these as a separate data set.

B1: self-annealed 19-mer product DNA (pre-translocation) (dsDNA)
DNA 1: TCAAGGGTCCTAGGACCCT
DNA 2: TCAAGGGTCCTAGGACCCT
Turning to B1, the binding result in data set [1] is “binds”.

B2: self-annealed 17-mer product DNA (post-translocation) (dsDNA)
DNA 1: TCAAGGGTCCGGACCCT
DNA 2: TCAAGGGTCCGGACCCT
Turning to B2, the binding result in data set [2] is listed as “binds”.

B3: product DNA formed in crystallo from 18-mer plus dTTP (dsDNA)
DNA 1: TCAAGGGTCCTAGGACCCT
DNA 2: TCAAGGGTCCTAGGACCCT
Consider B3, for which, in data set [3], the binding result is listed as “binds”.

B4: self-annealed 18-mer substrate DNA, template A (dsDNA)
DNA 1: TCAAGGGTCCTAGGACCC
DNA 2: TCAAGGGTCCTAGGACCC
Turning to B4, the binding result in data set [4] is “binds”.

(Values after article PMC12214486.)
